One substance from patent publication US9885709B2, “Determination of a midregional proadrenomedullin partial peptide in biological fluids for diagnostic purposes, and immunoassays for carrying out such a determination” (B.R.A.H.M.S. GMBH, priority 2003, dated 2018) can be followed below.

Several values for one entry are separate records, joined by “and”; a condition that tells them apart may be missing. Equal entries are not always repeated.

The series can be described thus: Stability investigation of mid-proAM in sepsis sera stored at room temperature. It counts as in vitro ADME. From the text: For examining the question as to whether problems are likely in a measurement of mid-proAM because of insufficient stability of the mid-proAM in a sample or measuring solution, 20 sepsis sera were each measured in a fresh state and after storage for 3 days at room temperature. […] This proven stability of mid-proAM is a major advantage in terms of handling aspects for diagnosis.

For the substance “mid-proAM: peptide which contains the amino acids 45-92 of pre-proAM or consists thereof (SEQ ID NO:3); endogenous analyte, also synthesized as standard (ELRMSSSYPTGLADVKAGPAQTLIRPQDMKGASRSPEDSSPDAARIRV; listed as Homo sapiens)”, the immunoreactivity after storage entry (20 sepsis sera, storage for 3 days at room temperature) is on record as “virtually unchanged”. Besides, the Change (Day 3 value as percent of Day 0 value, individual sepsis serum, 3 days at room temperature) is 92.7% and 95.7% and 109.6% and 102.8% and 96.4% and 99.9% and 106.3% and 102.1% and 95.2% and 110.7% and 80.0% and 105.5% and 102.2% and 103.4% and 89.5% and 94.1% and 98.8% and 98.1% and 97.0% and 95.4%. Further, for the setting “individual sepsis serum (one patient), after storage for 3 days at room temperature”, the “mid-proAM Day = 3” value is 1.0 nmol/l and 1.2 nmol/l and 2.1 nmol/l (2×) and 2.7 nmol/l (2×) and 3.1 nmol/l and 4.9 nmol/l and 5.9 nmol/l and 3.4 nmol/l and 4.6 nmol/l and 2.4 nmol/l and 1.3 nmol/l and 1.5 nmol/l (2×) and 1.8 nmol/l (2×) and 2.0 nmol/l and 6.1 nmol/l and 3.2 nmol/l. In addition, the “mid-proAM Day = 0” value (individual sepsis serum (one patient), measured in a fresh state) was 1.1 nmol/L and 1.3 nmol/L and 1.9 nmol/L and 2.6 nmol/L and 2.8 nmol/L and 3.1 nmol/L and 4.6 nmol/L and 5.8 nmol/L and 3.6 nmol/L and 4.2 nmol/L and 3.0 nmol/L and 1.2 nmol/L and 1.5 nmol/L and 1.7 nmol/L and 2.0 nmol/L and 2.1 nmol/L and 6.2 nmol/L and 3.3 nmol/L and 2.2 nmol/L and 1.6 nmol/L.
